# Fewer inactive variants are shown than the library holds.
# B1: TPR 5TU (parent)
# chain: GGAUCUUCUCGAUCUAACAAAAAAGACAAAUCUGCCACAAAGCUUGAGAGCAUCUUCGGAUGCAGAGGCGGCAGCCUUCGGUGGCGCGAUAGCGCCAACGUUCUCAACUAUGACACGCAAAACGCGUGCUCCGUUGAAUGGAGUUUAUCAUG
# Variants of: B1
# Assay: polymerase ribozyme fitness, log enrichment relative to wild type (log ratio); higher = more active; in vitro selection for triplet polymerase activity
# Procedure, shortened: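 To select mutant libraries of each subunit of a heterodimeric triplet polymerase ribozyme, built by PCR and transcribed, each was annealed with a biotinylated primer, partner subunit and triplets, then incubated frozen at −7 °C. Extended constructs were gel-excised, captured on streptavidin beads and amplified by RT-PCR, in one round carried out in triplicate. Illumina sequencing of input and output libraries kept genotypes with ≥10 input reads and ≥1 read per output. Fitness is the base-2 logarithm of genotype enrichment relative to wild-type enrichment, from inverse-variance-weighted replicate averages.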
row,Variant,polymerase ribozyme fitness (log ratio)
1,A19U A49C A52G A106G,≤ -4.2
2,A20C G86A,-2.24
3,A19U A89U G136U,-3.55
4,A20C C76G,≤ -4.2
5,A19U C69G C85U U134G G152U,≤ -4.2
6,A20G A22U C93G,-4.09
7,A20C U61G C75U U146A,-2.77
8,A19G C54G,-1.84
9,A19U C76U C131U,0.231
10,A20C G50U G81C C103U A120U,-2
11,A19U G81A,-0.839
12,A20C A49C A52C C57U C76A G88A A106G G126C U145G,≤ -4.2
13,A20G A30U C95U,-3.5
14,A20C A49G,-0.512
15,A19U A91G C93G U111A A137C,≤ -4.2
16,A20C A49U A60C,-3.14
17,A19U A120U,-0.806
18,A19U G46U A89C,-2.83
19,A19U C131A,-1.75
20,A19U A22C U55G A64C A73G A91C U144A,≤ -4.2
21,A19U C96G A122U,-0.445
22,A20C C85A G126C U144A,-0.594
23,A19U C35U G42U U55G G67A C85G A97C C114G G140U,≤ -4.2
24,A20G A21C C93A A97G,-3.83

row,Variant,polymerase ribozyme fitness (log ratio)
1,A20G A22U G70U C85G A110U A121C,≤ -4.2
2,A20C A52U C93U C95A C96A U109A C125U,≤ -4.2
3,A19U A23C C27A C85A,≤ -4.2
4,A19U G94A,-1
5,A19U A49C C69U U77G C79A G84A C99A A113C C114G A142C,≤ -4.2
6,A20C A26C G128U U144G,≤ -4.2
7,A19U A20U C85U,-2.59
8,A19U A20U C85U A142G,-2.89
9,A19U U55G C85G C96U C116A U139A,≤ -4.2
10,A19U A20C A26U C85U C118A C125U U134G G143A,≤ -4.2
11,A19G G126C,0.693
12,A20C G83C C118G U130G,≤ -4.2
13,A20C C76A A119U,-1
14,A20C U130G U144C,-4.14
15,A19G U33C A49C C54U G81A C87U,≤ -4.2
16,A20C U104G A107C U145G,≤ -4.2
17,A20C U127G G133C U134C A137C A138G G140A,≤ -4.2
18,A19U U33C C69U G126U,-0.898
19,A19U C38G G59C G86A C99U G117U C118A U127A A138G,≤ -4.2
20,A19G G50A C69U G84U A98U A122G,≤ -4.2
21,A20C G136A,-0.55
22,A20C A60C C85A,-2.66
23,A19G A41U A66C C93U C99U A115U G140A G141C,≤ -4.2
24,A20C U90G C99U G136C,≤ -4.2

row,Variant,polymerase ribozyme fitness (log ratio)
1,A19U G48C C75U U77C C93G A122U A150C,≤ -4.2
2,A19G U109G C118G U144A,-3.72
3,A19U U53G C93G,≤ -4.2
4,A19U A30U G62C G65C C96A,≤ -4.2
5,A19G G50U A73G C85U,-0.781
6,A19G U90G,≤ -4.2
7,A19U A24U G46U A49C U82G C99A,≤ -4.2
8,A19U U45G,-0.38
9,A19U C32A G84A G128U C131U A137G,-3.73
10,A19U A22C G94C C96G C123U G128A U139C U146C,≤ -4.2
11,A19U A24C C35U C57U A66C G86U,-4.08
12,A19U A21U C85G,-2.46
13,A19U A22G A39C C79G,≤ -4.2
14,A20G A28G U90A C93A C95G A106U C123U,≤ -4.2
15,A19G A91U,≤ -4.2
16,A19U G58A G94U C116A A119C,-0.758
17,A19G U82G G124A G140C,-3.62
18,A19U A20G A66G G80A C87A A107G A110C,≤ -4.2
19,A19U U31A G58C C63U G70C C95U C131G G152U,≤ -4.2
20,A19U C69G C72U G84A,-3.03
21,A20G A21U A26U A29U A39C A91G G94U A97G C99A C131A A142G,≤ -4.2
22,A20G A24U C85A C116A,-0.238
23,A19U C85G G92U C123U,-2.54
24,A20C A26C A30C U44G G50A A66C,≤ -4.2

row,Variant,polymerase ribozyme fitness (log ratio)
1,A20C G94A G136U,-3.83
2,A20C A24U C93U U130G A150G,≤ -4.2
3,A19U C54U U134C A150C,-2.5
4,A19G C93A,-3.43
5,A19G G83A C85A C96U A97C A119G,≤ -4.2
6,A20C A39C C79G A106G G124U,≤ -4.2
7,A19U C105G,-1.81
8,A19U U44A C95U C99G,≤ -4.2
9,A20C A22U G58A U77C C96G,≤ -4.2
10,A19G A91G C95U C125U,-4.01
11,A20G A21C G84U C95G G117U,-0.439
12,A20C C79A G94C,≤ -4.2
13,A20C A98U,-1.29
14,A19U A52U A97G,-2.59
15,A19U C57G,-1.75
16,A19G C87G,≤ -4.2
17,A19G G25U A47C U78C C96A,≤ -4.2
18,A19U G59A G83U U139G,-1.28
19,A20C C27U G81A G86A C99G,-2.96
20,A20C C43U U44A U55G C79U G141A,≤ -4.2
21,A20C A21G A23C A28U C38A,≤ -4.2
22,A20G A22U G59A C93G A98G A137G U139G,≤ -4.2
23,A19U A28U G67C U82A C87A A122C U127C U145C,≤ -4.2
24,A19G C32A G46C C54U G59C A106U G128C,≤ -4.2

row,Variant,polymerase ribozyme fitness (log ratio)
1,A20G A39G G50C C85A C93A C114G C125G,≤ -4.2
2,A19G U148G,-3.88
3,A20C C96U,-1.24
4,A19U A41C G58A C85G,-2.71
5,A20C G65U U90G C93U C129A,≤ -4.2
6,A20C A24U U44A G88A C93U,≤ -4.2
7,A19U U31G U144C,-1.49
8,A20C C85U A115U,-1.06
9,A19U C85A A113U,-3.44
10,A20C A73C G81A U90C G92C U104G,≤ -4.2
11,A20C A21U A23C C51A C123A A138U,≤ -4.2
12,A20C G68C G141C,≤ -4.2
13,A19U G50U G58C C75U C118G A120G G141A U146A,≤ -4.2
14,A20G A24G A40C A49C C85A,≤ -4.2
15,A19U C38U A49C G58C C79U G88A A97C,≤ -4.2
16,A19G G67C G124U,≤ -4.2
17,A19G A40C C93U,-0.92
18,A20C C54U C95U G140U,-3.23
19,A19U C57U C103G A119G C123A,-3.45
20,A19U G46U A52U,≤ -4.2
21,A20C C36A A49U U56G A91U U146C,≤ -4.2
22,A19G G59U C76A C96U,-1.25
23,A19G G94A,-1.06
24,A19G A30G G42C G50A C85U U109A A120G,≤ -4.2

row,Variant,polymerase ribozyme fitness (log ratio)
1,A20G A22U C87U,-2.33
2,A19G C93A G140A,≤ -4.2
3,A19G A39U U55G A121C,-2.95
4,A20C C87A C116U,≤ -4.2
5,A20C C63U G88C C95U,≤ -4.2
6,A20G A40U U77C,≤ -4.2
7,A20C C57G C105G C149A,≤ -4.2
8,A19U G58A C105G,-2.43
9,A19U C57G C95U C103G U104G,≤ -4.2
10,A20G A29C G46U C54U C96U C116A U148A,≤ -4.2
11,A19U A37U U44G A66U G92U C96A C123U G124A,≤ -4.2
12,A19U G81C C85U U145A,-0.303
13,A20C A23U A29U G92A A110U U139G A142G U144G,≤ -4.2
14,A20C G46A C69G G94A,-2.22
15,A19U C51G G59C C75G G88A A91U C96U G141C,≤ -4.2
16,A19G C38U G50A G86A C105A C116A A121U G141C,≤ -4.2
17,A19U U45G G83C U127A,≤ -4.2
18,A19U A73G G86U,-1.03
19,A19G U55A,-0.576
20,A19G U109C G141A,-2.85
21,A19G A28G A60G G86C A107G C118U G141U,≤ -4.2
22,A19U C96G C114U,-2.99
23,A20C G48U G83U,-2.07
24,A20G A24U U111A A142U G143U,≤ -4.2

row,Variant,polymerase ribozyme fitness (log ratio)
1,A20C A30C G100C U102G G143U U145G,≤ -4.2
2,A20C A24C C51A G74C G94U A121U U135G U148C,≤ -4.2
3,A19U A37C U135G,-3.82
4,A19U C43G C54G A91G,≤ -4.2
5,A19G G50A G67A A91U C93A,≤ -4.2
6,A19G A73U G94C,-2.39
7,A20C A47C,-0.462
8,A19U G48A,-1.05
9,A19U G48U,-0.613
10,A20G A40C C72U G92A,-4.04
11,A19G A29U C95U A122G,≤ -4.2
12,A20C A40C U56A G92U,-0.349
13,A20C U56A C93A C116A,-1.28
14,A19G A37U U101G,-2.14
15,A20C C63U A64C,≤ -4.2
16,A20C C54U G86C U101C U104A,≤ -4.2
17,A20C G81C C87U,-1.28
18,A19U C75U G81C C99G A119G G140U,≤ -4.2
19,A19U A29U A39G U44G C85U G143U,≤ -4.2
20,A19G U53G A120U,-2.57
21,A19U U55A G59U,0.528
22,A19U G84C,-2.08
23,A20C A60G,-0.605

# Source: the RNAGym collection of RNA variant scans (doi:10.1073/pnas.2313332121)
